According to US20230272055A1, “ANTI-MUTANT CALRETICULIN (CALR) ANTIBODIES AND USES THEREOF” (Incyte Corporation, priority 2021, published 2023):
Read-outs that look alike come from different tables or passages of the source.

How the values were obtained:
[1] = molecular target: Human Type 1 mutCALR (human); assay: cell-based or functional assay
[2] = molecular target: human Type 1 mutCALR (52 bp deletion) (human)
[3] = molecular target: human Type 1 mutCALR (52 bp deletion) (human); remark: listed apart in the source
[4] = molecular target: human Type 1 mutCALR (52 bp deletion) (human); remark: listed apart in the source
[5] = molecular target: human Type 1 mutCALR (52 bp deletion) (human); remark: listed apart in the source
[6] = molecular target: human Type 1 mutCALR (52 bp deletion) (human); remark: listed apart in the source
[7] = molecular target: human Type 1 mutCALR on Ba/F3 cells expressing MPL and Type 1 mutCALR (human); assay: cell-based or functional assay
human Type 1 mutCALR on Ba/F3 cells expressing MPL and Type 1 mutCALR (human), sequence (chain, as listed by the source limits assumed): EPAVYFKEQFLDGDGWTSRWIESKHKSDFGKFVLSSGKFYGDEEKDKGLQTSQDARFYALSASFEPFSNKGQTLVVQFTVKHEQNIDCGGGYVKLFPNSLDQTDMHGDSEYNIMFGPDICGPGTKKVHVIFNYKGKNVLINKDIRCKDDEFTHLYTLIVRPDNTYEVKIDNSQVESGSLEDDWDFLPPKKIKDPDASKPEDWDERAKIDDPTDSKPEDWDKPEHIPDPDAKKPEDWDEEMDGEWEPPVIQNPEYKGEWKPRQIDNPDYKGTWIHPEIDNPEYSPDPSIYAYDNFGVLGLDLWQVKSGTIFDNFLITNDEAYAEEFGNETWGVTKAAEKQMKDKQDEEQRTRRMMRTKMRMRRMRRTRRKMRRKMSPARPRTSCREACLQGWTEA

Human Type 1 mutCALR (human), sequence (chain, as listed by the source limits assumed): as above
human Type 1 mutCALR (52 bp deletion) (human), sequence (chain, as listed by the source limits assumed, stated change not applied): as the sequence (chain, as listed by the source limits assumed) above

B1: AB2: anti-mutCALR antibody including VH and VL regions of antibody B3 from WO2020175689 fused to human constant regions (antibody, human IgG1, kappa, V domains shown)
VH: QVQLQQSGAELVKPGSSVKISCKASGYTFTRNFIHWIKQQPGNGLEWIGWIFPGDGDTEYNQKFNGKATLTADKSSSTAYMQLSSLTSEDSAVYFCARGNYNYEYFDYWGQGVMVTVSS
VL: DIQMTQSPASLSASLGETVSIECLASEDIYSYLAWYQQKPGKSPQLLIFAANRLQDGVPSRFSGSGSGTQFSLKISGMQPEDEGDYFCLQGSKFPYTFGPGTKLELNR
An IC50 of inhibition of cell proliferation (BaF3 cells expressing MPL/mutCALR Type 1) [1] of over 60000 ng/mL was found for B1 in this work.

B2: AB3: anti-mutCALR antibody including the BJ095 VH region and the BJ097 VL region from WO2019178362 fused to human constant regions (antibody, human IgG1, kappa, V domains shown)
VH: QVQLVQSGAEVKKPGASVKVSCKASGYSFTGYYIHWVRQAPGQGLEWIGYISAYNGASSYNQKFKGRATFTVDTSISTAYMELSRLRSDDTAVYYCASSMDYWGQGTLVTVSS
VL: DVVMTQSPLSLPVTLGQPASISCKSSQSLLDSDGKTYLNWLQQRPGQSPKRLIYLVSKLDSGVPDRFSGSGSGTDFTLKISRVEAEDVGVYHCWQGTHFPYTFGQGTKLIEKR
An IC50 of inhibition of cell proliferation (BaF3 cells expressing MPL/mutCALR Type 1) [1] of over 60000 ng/mL was found for B2 in this work.

B3: anti-mutCALR antibody clone 68 (antibody, human IgG1, lambda, N297A, V domains shown)
VH: EVQLVQSGAEVKKPGASVKVSCKVSGYTLTELSMQWVRQAPGKGLEWMGGFDPDEGETMYAEKFQGRLTVTEDTSTDTVYMELRSLTSEDTALYFCATSPGYDFFDYWGQGTLVTVSS
VL: SYVLTQPPSVSVAPGKTARITCTGTSSDVGGYNYVSWYQQKPGQAPVLVVYEVSNRPSGIPERFSGSNSGNTATLTISRVEAGDEADYYCQVWDSSNDLLIFGGGTKLTVLG
An IC50 of inhibition of MPL-LgBiT/MPL-smBiT dimerization (NanoBiT luminescence, percent of isotype) in transfected HAP1 JAK2-knockout cells [2] of 3.27 ng/mL and an IC50 of inhibition of cell proliferation (Ba/F3 cells with MPL and mutCALR Type 1) [1] of 0.9 ng/mL were found for B3 in this work.

B4: anti-mutCALR antibody clone 74 (antibody, human IgG1, lambda, N297A, V domains shown)
VH: EVQLVQSGAEVKKPGASVKVSCKVSGYTLTELSMQWVRQAPGKGLEWMGGFDPDDAETMYAEKFQGRLTVTEDTSTDTVYMELSSLRSEDTAVYFCATSPGYDFFDYWGQGTLVTVSS
VL: SYVLTQPPSVSVAPGKTARITCTGTSSDVGGYNYVSWYQQKPGQAPVLVVYEVSNRPSGIPERFSGSNSGNTATLTISRVEAGDEADYYCQVWDSSNDLLIFGGGTKLTVLG
An IC50 of inhibition of cell proliferation (Ba/F3 cells with MPL and mutCALR Type 1) [1] of 1 ng/mL, a Log IC50 of inhibition of cell proliferation, antibody + ruxolitinib (Ba/F3-TPOR/mutCALR type 1 cells) (Log IC50 (µg/mL)) [1] of -1.46 and a Log IC50 of inhibition of cell proliferation, antibody alone (Ba/F3-TPOR/mutCALR type 1 cells) (Log IC50 (µg/mL)) [1] of -0.438 were found for B4 in this work. The IC50 of inhibition of MPL-LgBiT/MPL-smBiT dimerization (NanoBiT luminescence, percent of isotype) in transfected HAP1 JAK2-knockout cells [3] was 8.89 ng/mL.

B5: anti-mutCALR antibody clone 65 (antibody, human IgG1, lambda, N297A, V domains shown)
VH: EVQLVQSGAEVKKPGASVKVSCKVSGYTLTELSMQWVRQAPGKGLEWMGGFDPDDGETMYAEKFQGRLTVTEDTSTDTVYMELRSLTSEDTALYFCATSPGYDFFDYWGQGTLVTVSS
VL: SYVLTQPPSVSVAPGKTARITCTGTSSDVGGYNYVSWYQQKPGQAPVLVVYEVSNRPSGIPERFSGSNSGNTATLTISRVEAGDEADYYCQVWDSSNDLLIFGGGTKLTVLG
An IC50 of inhibition of MPL-LgBiT/MPL-smBiT dimerization (NanoBiT luminescence, percent of isotype) in transfected HAP1 JAK2-knockout cells [4] of 3.27 ng/mL and an IC50 of inhibition of cell proliferation (Ba/F3 cells with MPL and mutCALR Type 1) [1] of 0.3 ng/mL were found for B5 in this work.

B6: anti-mutCALR antibody clone 184 (antibody, human IgG1, lambda, N297A, V domains shown)
VH: EVQLVQSGAEVKKPGASVKVSCKVSGYTLTELSMQWVRQAPGKGLEWMGGFDPDDAETMYAEKFQGRLTVTEDTSTDTVYMELRSLTSEDTALYFCATSPGYDFFDYWGQGTLVTVSS
VL: SYVLTQPPSVSVAPGQTARITCGGSDIGDEIVHWYQQKPGQAPVLVVYDDSDRPSGIPERFSGSNSGNTATLTISRVEAGDEADYYCQVWDSSSDHLIFGGGTKLTVLG
An IC50 of inhibition of MPL-LgBiT/MPL-smBiT dimerization (NanoBiT luminescence, percent of isotype) in transfected HAP1 JAK2-knockout cells [5] of 3.77 ng/mL and an IC50 of inhibition of cell proliferation (Ba/F3 cells with MPL and mutCALR Type 1) [1] of 1.9 ng/mL were found for B6 in this work.

B7: anti-mutCALR antibody clone 188 (antibody, human IgG1, lambda, N297A, V domains shown)
VH: EVQLVQSGAEVKKPGASVKVSCKVSGYTLTELSMQWVRQAPGKGLEWMGGFDPDEGETMYAEKFQGRLTVTEDTSTDTVYMELSSLRSEDTAVYFCATSPGYDFFDYWGQGTLVTVSS
VL: SYVLTQPPSVSVAPGQTARITCGGSDIGDEIVHWYQQKPGQAPVLVVYDDSDRPSGIPERFSGSNSGNTATLTISRVEAGDEADYYCQVWDSSSDHLIFGGGTKLTVLG
An IC50 of inhibition of MPL-LgBiT/MPL-smBiT dimerization (NanoBiT luminescence, percent of isotype) in transfected HAP1 JAK2-knockout cells [6] of 2.48 ng/mL and an IC50 of inhibition of cell proliferation (Ba/F3 cells with MPL and mutCALR Type 1) [1] of 4.6 ng/mL were found for B7 in this work.

B8: anti-mutCALR antibody clone 14 (antibody, human IgG1, lambda, V domains shown)
VH: EVQLVQSGAEVKKPGASVKVSCKVSGYTLTELSMQWVRQAPGKGLEWMGGFDPDDGETMYAEKFQGRLAVTEDTSTDTVYMELRSLTSEDTALYFCATSPGYDFFDYWGQGTLVTVSS
VL: SYVLTQPPSVSVAPGKTARITCGGYNIGSKFVHWYRQRPGQAPVLVVYDDRDRPSGIPERFSGSNSGNTATLTISRVEAGDEADYYCQVWDSSNDLLIFGGGTKLTVLG
An IC50, inhibition of pSTAT5 [7] of 0.06 µg/mL was found for B8 in this work.

B9: anti-mutCALR antibody clone 128 (antibody, human IgG1, lambda, N297A, V domains shown)
VH: EVQLVQSGAEVKKPGASVKVSCKVSGYTLTELSMQWVRQAPGKGLEWMGGFDPDDAETMYAEKFQGRLTVTEDTSTDTVYMELRSLTSEDTALYFCATSPGYDFFDYWGQGTLVTVSS
VL: SYELTQPPSVSVAPGKTARITCGGDNIGSKSVHWYQQKPGQAPVLVVYDDSDRPSGIPERFSGSNSGNTATLTINRVEAGDEADYYCQVWDSSNDLLIFGGGTKLTVLG
An IC50 of inhibition of cell proliferation (Ba/F3 cells with MPL and mutCALR Type 1) [1] of 9.8 ng/mL was found for B9 in this work.

B10: anti-mutCALR antibody clone 54 (antibody, human IgG1, kappa, V domains shown)
VH: QVTLKESGPGILKPSQTLSLTCSFSGFSLSTSGMGVGWIRQPSGKGLEWLAHIWWDDDKYYNPYLKNQVTISKDTSRNQVFLKITSVDTADTATYYCARSAYGSTYGYWGQGTTLTVSS
VL: DIVLTQSPASLAVSLGQRATISCKASQSVDYDGDSFMNWYQQKPGQPPKLLIYTASILESGIPARFSGSGSGTDFTLNIHPVEEEDAATYYCQQSNEDPWTFGGGTKLEIKR
An IC50, inhibition of pSTAT5 [7] of 12.7 µg/mL was found for B10 in this work.
